Reference: US20230255880A1, “IMMOBILIZED ENZYME-BASED WOUND DEBRIDEMENT” (Guild Associates Inc., priority 2022, published 2023)

Assays:
[1] = tested on: Human keratinocytes; experiment: Keratinocyte compatibility testing, resazurine-based assay; type: cell-based
Method: (§1) Immobilized enzyme samples were further analyzed to determine if they have a detrimental effect on healthy tissue surrounding a burn wound. Human keratinocytes and fibroblasts obtained from ATCC, were seeded at cell densities of 2×10^4 in 24 well plates 6 days prior to experiments and incubated at 37° C. under 5% CO2. On day 7 a stock solution of 100 mg/mL an immobilized enzyme or natural enzyme is prepared in either PBS or a culture medium. Cells were treated with 500 μL of the enzyme solution, at several dilutions, for up to 6 hours. At the end of the test, the enzyme solution is removed, cells were washed twice with PBS, and 500 μL of the appropriate cultivation media is added. The effect of the different concentrations of enzyme on the cells is assessed using a resazurine-based assay and life cell imaging. In this case the fluorescence signal is proportional to the amount of vital cells. All enzyme concentrations were measured in triplicate (n=3). The enzyme containing fluid removed after 6 hours of exposure to cells is evaluated using the methods described above for enzymatic activity. Data determined above is used to compensate for autolytic degradation in test samples.

[2] = Diffusion through Strat-M membranes in Franz cell (in vitro dermal compatibility); type: in vitro ADME; settings: after 6 hours, averaged across all tests, 37° C., PBS pH 7.4
Text: Strat-M™ membranes (EMD Millipore) were selected and for testing diffusion of the immobilized enzyme through healthy skin. Strat-M is a synthetic polymeric membrane designed to simulate the properties of human skin for transdermal diffusion. The membrane is composed of multiple polyether sulfone layers with a tightly packed surface layer to create a morphology that resembles human skin. The advantage of this material is that it provides a more predictive result, since it has less variability between samples, and is not as limited to storage conditions, safety considerations, and sample availability.
Franz cells with 5 mL receptor volumes were filled with filtered 10 mM PBS buffer at pH 7.4 and held at 37° C. Strat-M membranes were placed on the receptor, covered with 0.3 mL of buffer, and the system was allowed to equilibrate with the receptor fluid for at least 30 minutes. After equilibration 0.5 mL of solutions containing 20-100 mg/mL of natural enzyme, immobilized enzyme, or BSA as a control were added to the top of the Franz cell and the cell was covered. 0.5 mL samples were taken hourly (replacing the volume with fresh PBS buffer each time) for the first 6 hours and a final sample at 24 hours. The protein concentration in each sample was evaluated using a Bradford assay and a 660 nm protein concentration assay from Pierce. The enzyme activity of the 24-hour samples was evaluated to determine if active enzyme or just peptides had passed through the membrane.

[3] = tested on: Human fibroblasts; experiment: Fibroblast compatibility study, resazurine-based assay; type: cell-based; settings: all tested concentrations
Method: as §1

[4] = tested on: casein; experiment: pH stability and autolytic resistance, 6 hours at 37° C. in phosphate buffer; type: physicochemical; settings: for Retained activity after 6 hours of exposure: phosphate buffer, average of 5 ± standard error
Method: Natural (non-immobilized) and immobilized forms of each enzyme were loaded into 10 mL of phosphate buffer solutions at pH 7.0, 6.0, and 5.0 and mixed for 6 hours at 37° C. These pH values were selected as representative of the range of pH of intact to wounded skin. The amount of natural or immobilized enzyme material that was added at the start of the test was based on its measured activity, so that all tests started with similar enzyme activities for each enzyme: 2.6 U bromelain, 21 U collagenase, and 5.4 U trypsin. Retained activity was determined by taking a sample of the test solution at a given time point and evaluating it against casein. The measured activity of the test sample was divided by the activity measured at the start of the test and is presented as the average of 5 measurements±standard error, Table 2.

Substance | Relative signal ([1]; all tested concentrations) | Amount of protein passing through Strat-M membranes [2] [mg] | Relative signal (cell growth) [3] | Retained activity after 6 hours of exposure ([4]; pH 5, 37° C.) | Retained activity after 6 hours of exposure ([4]; pH 6, 37° C.) | Loss of starting activity after 6 hours ([4]; pH 7) [%] | Retained activity after 6 hours of exposure ([4]; pH 7, 37° C.) | Loss of initial activity within 6 hours ([4]; all pH tested) | Highest relative signal ([1]; 40 mg/mL) | Retained activity after 6 hours of exposure ([4]; pH 5, 37° C., listed as bromelain Natural)
trypsin | around 1 | 11.93 ± 0.50 | almost no change to cell growth | 43.3% ± 1.1% | 46.1% ± 1.2% | 92 | 7.7% ± 5.3% | – | – | –
collagenase | – | 18.15 ± 0.81 | ~1 | 12.3% ± 4.5% | 18.9% ± 1.3% | – | 13.9% ± 3.3% | 80-90% | – | –
bromelain | – | 2.08 ± 0.25 | – | – | 36.1% ± 1.4% | – | 64.7% ± 3.0% | – | 6.71 | 95.6% ± 4.9%
